# pKd: −log10 of the molar value.
# Columns and labels:
# [1] = system: M.EcoKI (M2S1 methyltransferase core of EcoKI); assay: fluorescence anisotropy; set-up: unit not given here; conditions: Anisotropy: M.EcoKI titrated into 2 nM labelled duplex (with 50 nM Ocr in the competition series); buffer and temperature not given (ref. 12). ITC buffer …
# [2] = biological target: T1, M.EcoKI methyltransferase (M2S1 core of the EcoKI type I restriction/modification enzyme) (UniProt P05719+P08957); assay: ITC; conditions: pH 8.0, 25 °C, no NaCl, 6 mM MgCl2
# [3] = biological target: T1, M.EcoKI methyltransferase (M2S1 core of the EcoKI type I restriction/modification enzyme); assay: ITC in two buffers of different ionisation enthalpy (comparison of C1 and C2); conditions: pH 8.0; 25 °C; no NaCl; 6 mM MgCl2; 20 mM Tris-HCl pH 8.0 (47.4 kJ/mol) versus 20 mM Hepes (20.5 kJ/mol)
# [4] = biological target: M.EcoKI, DNA methyltransferase component (M2S1) of the EcoKI type I R/M system (E. coli K12) (UniProt P08957); assay: fluorescence polarisation; competition with DNA: M.EcoKI titrated into 50 nM Ocr and 2 nM of a 21-bp DNA duplex fluorescently labelled at the 5' end; anisotropy of the DNA monitored
# [5] = biological target: M.EcoKI, DNA methyltransferase component (M2S1) of the EcoKI type I R/M system (E. coli K12) (UniProt P08957); assay: ITC; Ocr (typically 40 uM) titrated into M.EcoKI (4 uM); 20 mM Tris-HCl pH 8.0, 6 mM MgCl2, 7 mM 2-mercaptoethanol, 100 uM SAM, with or without 500 mM NaCl; 10 to 30 °C
Substance,pKd [4],other results
21-bp DNA duplex,,Kd [1]: 2.1
"Ocr (overcome classical restriction; gene 0.3 protein), unmodified wild type",,"ΔH ([2]; 20 mM Hepes in place of Tris-HCl (heat of ionization = 20.5 kJ/mol as printed), pH not restated, taken as 8.0): − 90.0 kJ/mol; ΔH ([2]; 20 mM Tris-HCl, pH 8.0 (heat of ionization = 47.4 kJ/mol as printed)): − 86.2 kJ/mol; net protonation change on binding (no number given) [3]: 0 protons"
Ocr chemically modified with EDC/HOBt and ammonium hydroxide for 60 min (N-series) (from UniProt P03775 1-117) (natural protein),8.72,stoichiometry N (Ocr dimer per molecule of M.EcoKI) [5]: 1
Ocr chemically modified with EDC/HOBt and ammonium hydroxide for 180 min (N-series) (from UniProt P03775 1-117) (natural protein),7.90,
Ocr chemically modified with EDC/HOBt and dimethylamine for 60 min (D-series) (from UniProt P03775 1-117) (natural protein),7.71,
Ocr chemically modified with EDC/HOBt and dimethylamine for 120 min (D-series) (from UniProt P03775 1-117) (natural protein),7.64,
Ocr chemically modified with EDC/HOBt and dimethylamine for 180 min (D-series) (from UniProt P03775 1-117) (natural protein),7.58,

# Continued, in another order:
pKd [4],Substance,other results
9.25,Ocr chemically modified with EDC/HOBt and ammonium hydroxide for 15 min (N-series) (from UniProt P03775 1-117) (natural protein),
8.74,Ocr chemically modified with EDC/HOBt and ammonium hydroxide for 30 min (N-series) (from UniProt P03775 1-117) (natural protein),
8.42,Ocr chemically modified with EDC/HOBt and ammonium hydroxide for 120 min (N-series) (from UniProt P03775 1-117) (natural protein),
8.58,Ocr chemically modified with EDC/HOBt and dimethylamine for 15 min (D-series) (from UniProt P03775 1-117) (natural protein),stoichiometry N (Ocr dimer per molecule of M.EcoKI) [5]: 1
8.24,Ocr chemically modified with EDC/HOBt and dimethylamine for 30 min (D-series) (from UniProt P03775 1-117) (natural protein),
